Read-outs that look alike come from different tables or passages of the source.
Tests used:
NB4 cell line = test: Apoptosis assay in CD33 positive NB4 cells; format: cell-based; conditions: NB4, AraC 250 nM, after 96 hours
Method: The NB4 cells were also treated with AraC, the HuM195-dCK conjugate, or the combination of HuM195-dCK and the AraC, and an apoptosis assay was performed as above. The AraC dose used, however, was decreased from 1000 nM to 250 nM. The results were similar to those observed in the HL60 cells (FIG. 8). The conjugate with AraC (right bars) achieve ˜65% cell killing after 96 hours, whereas AraC alone was below 40%.

parent 293 cells = test: Proliferation of parental 293 cells treated with nucleoside analogs; format: cell-based, human
Method: Next, whether the dCK-S74E/R104M/D133A variant could inhibit cell growth in the presence of NAs including BVdU was tested. Human 293 cells were stably transfected with a recombinant expression construct encoding the dCK-S74E/R104M/D133A protein. The proliferative capacity of the stably transfected cell line was compared to the parental 293 cells after treating the cells with several nucleoside analogs such as AraC, gemcitabine, and BVdU. Since some of the nucleosides were first dissolved in the solvent DMSO, equal amounts of DMSO were used as control.

HL60 cell line = test: Apoptosis assay (Annexin V and PI staining) in CD33 positive HL60 cells; format: cell-based, human; conditions: HL60, AraC at 1 μM, after 96 hours
Method: The HuM195 antibody will only bind and internalize to cells expressing CD33. Thus, the HL60 cell line (derived from AML cells) and the NB4 cell line, which are CD33 positive, were used to test the activity of the HuM195-dCK system in live cells. The cells were treated with AraC, the HuM195-dCK conjugate, or the combination of HuM195-dCK and the AraC. Annexin V and propidium iodide (PI) staining was used to identify apoptotic cells. […] The combination of AraC with the conjugate results in 20% more killing than AraC alone.

SKBR-3 = test: MTS cytotoxicity assay in breast cancer-derived cell line; format: cell-based, human; conditions: SKBR-3, 96 hours
Method: The cells were then exposed to varying amount of BVdU for 96 hours. […] Cell viability was measured using the MTS cytotoxicity assay according to the manufacturer's instructions (Promega). […] MTS was reduced by cellular dehydrogenase into formazan, which is soluble in tissue culture medium. […] Since the production of formazan is proportional to the number of living cells, the intensity of the produced color is a good indication of the viability of the cells.

Wild Type dCK [1] = molecular target: T1, Wild Type dCK (Homo sapiens, UniProt P27707); test: Steady-state kinetic (colorimetric, enzyme-coupled) assay of nucleoside phosphorylation by wild type dCK; conditions: for Km / kcat: Wild Type dCK, 0.4 μM dCK, 1 mM ATP.Mg, 37° C.
Wild Type dCK [2] = molecular target: T1, Wild Type dCK; set-up: The electron density for dCK extended to the last residue (Leu260), while the N-terminus (residues 1 to 19) was flexible; His-tag (N); made in house; host or cells: E. coli BL21(DE3); conditions: Lotfi et al., 1999; Mansson et al., 2003; cited from earlier work
A100V/R104M/D133A-dCK = molecular target: T2, A100V/R104M/D133A-dCK (Homo sapiens, UniProt P27707, A100V/D133A/R104M); test: Steady-state kinetic assay of nucleoside phosphorylation by A100V/R104M/D133A-dCK; format: biochemical
T2 construct: His-tag (N); made in house

[3] = Kinetic characterization of dCK variants, substrate D-dG; format: biochemical; conditions: for rate of phosphorylation, D-dG: Table 8, nucleoside 200 mM, ATP 1 μM [sic]; for kobs D-dG: nucleoside concentration of 200 μM, ATP 1 mM; for Rel kobs (D-dG): relative to WT
[4] = Kinetic characterization of dCK variants, substrate D-dC; format: biochemical; conditions: for rate of phosphorylation, D-dC: Table 8, nucleoside 200 mM, ATP 1 μM [sic]; for kobs D-dC: nucleoside concentration of 200 μM, ATP 1 mM; for Rel kobs (D-dC): relative to WT
[5] = Kinetic characterization of dCK variants, substrate AraC; format: biochemical; conditions: for kobs AraC: nucleoside concentration of 200 μM, ATP 1 mM; for Rel kobs (AraC): relative to WT
[6] = Kinetic characterization of dCK variants, substrate D-dA; format: biochemical; conditions: for kobs D-dA: nucleoside concentration of 200 μM, ATP 1 mM; for Rel kobs (D-dA): relative to WT
[7] = Kinetic characterization of dCK variants, substrate D-dT; format: biochemical; conditions: for rate of phosphorylation, D-dT: Table 8, nucleoside 200 mM, ATP 1 μM [sic]; for kobs D-dT: nucleoside concentration of 200 μM, ATP 1 mM; for Rel kobs (D-dT): relative to WT
[8] = Kinetic characterization of dCK variants, substrate L-dT; format: biochemical; conditions: for rate of phosphorylation, L-dT: Table 8, nucleoside 200 mM, ATP 1 μM [sic]; for kobs L-dT: nucleoside concentration of 200 μM, ATP 1 mM; for Rel kobs (L-dT): relative to WT
[9] = Kinetic characterization of dCK variants, substrate gemcitabine; format: biochemical; conditions: for kobs Gem: nucleoside concentration of 200 μM, ATP 1 mM; for rate of phosphorylation, Gem: Table 8, nucleoside 200 mM, ATP 1 μM [sic]; for Rel kobs (Gem): relative to WT
[10] = Kinetic analysis of dCK variants, substrate L-dU; format: biochemical; conditions: Table 8; nucleoside 200 mM, ATP 1 μM [sic]
Method: In a separate experiment, those mutant dCKs were analyzed in the presence of a nucleoside substrate at a concentration of 200 mM, and a phosphoryl donor ATP at a concentration of 1 μM.

[11] = Iyidogan, et al., 2008; read-out: Km for D-dT; cited from earlier work
[12] = McSorley et al., 2008; cited from earlier work

Compound	rate of phosphorylation, D-dG [3]	kobs D-dG [3]	rate of phosphorylation, D-dC [4]	kobs D-dC [4]	kobs AraC [5]	kobs D-dA [6]	rate of phosphorylation, D-dT [7]	kobs D-dT [7]	rate of phosphorylation, L-dT [8]	kobs L-dT [8]	kobs Gem [9]	rate of phosphorylation, Gem [9]	also measured
Nc1ccn([C@@H]2O[C@H](CO)[C@@H](O)[C@@H]2O)c(=O)n1 [Ara-C, 1-β-D-arabinofuranosylcytosine]	–	–	–	–	–	–	–	–	–	–	–	–	cell killing (NB4 cell line): below 40%; inhibition of growth (parent 293 cells; 1 μM): no inhibitory effect; cell death (apoptotic cells) (HL60 cell line): ~50%
O=c1[nH]c(=O)n([C@H]2C[C@H](O)[C@@H](CO)O2)cc1/C=C/Br [BVdU, (E)-5-(2-bromovinyl)-2′-deoxyuridine]	–	–	–	–	–	–	–	–	–	–	–	–	inhibition of growth (parent 293 cells; highest tested concentration of 50 μM): did not inhibit the growth; effect on cell viability / proliferation (SKBR-3): no detrimental effect
Nc1nc2c(ncn2[C@H]2C[C@H](O)[C@@H](CO)O2)c(=O)[nH]1 [D-dG, deoxyguanosine]	–	–	–	–	–	–	–	–	–	–	–	–	kcat, Wild-type (Wild Type dCK [1]; Table 9): ~2.5 s⁻¹
Nc1nc(Cl)nc2c1ncn2[C@@H]1O[C@H](CO)[C@@H](O)[C@@H]1F [clofarabine, 2-chloro-2′-arabino-fluoro-2′-deoxyadenosine]	–	–	–	–	–	–	–	–	–	–	–	–	efficiency as substrate for dCK relative to cladribine (Wild Type dCK [2]): ~3 fold
Nc1ccn([C@H]2CC[C@@H](CO)O2)c(=O)n1 [ddC, 2′,3′-dideoxycytidine]	–	–	–	–	–	–	–	–	–	–	–	–	Km (Wild Type dCK [1]): 407 µM; kcat (Wild Type dCK [1]): 0.18 s⁻¹
Nc1ccn([C@@H]2O[C@H](CO)[C@@H](O)C2(F)F)c(=O)n1 [gemcitabine, 2′,2′-difluorodeoxycytidine]	–	–	–	–	–	–	–	–	–	–	–	–	Km (A100V/R104M/D133A-dCK): 50 µM; kcat (A100V/R104M/D133A-dCK): 3.52 s⁻¹; inhibition at 1 µM (parent 293 cells; Homo sapiens, HEK293, 1 μM, read-out: inhibition of growth): 75%; Km (Wild Type dCK [1]): 22 µM; kcat (Wild Type dCK [1]): 0.37 s⁻¹; higher enzymatic efficiency compared to dC (Wild Type dCK [1]; wild type dCK): ~4 fold; increase in kcat compared to dC (Wild Type dCK [1]; wild type dCK): 10 fold
R104F/D133A: human dCK mutant, phenylalanine at position 104, D133A	0.02 s⁻¹	<0.005 s⁻¹	0.02 s⁻¹	<0.005 s⁻¹	<0.005 s⁻¹	<0.005 s⁻¹	0.02 s⁻¹	<0.005 s⁻¹	0.02 s⁻¹	<0.005 s⁻¹	<0.005 s⁻¹	–	–
R104I/D133A: modified human dCK, isoleucine at position 104, alanine at position 133, SEQ ID NO:12	0.08 s⁻¹	0.08 ± 0.01 s⁻¹	0.06 s⁻¹	0.06 ± 0.01 s⁻¹	0.07 ± 0.01 s⁻¹	0.21 ± 0.01 s⁻¹	0.4 s⁻¹	0.40 ± 0.01 s⁻¹	0.19 s⁻¹	0.19 ± 0.02 s⁻¹	0.21 ± 0.08 s⁻¹	0.21 s⁻¹	Rel kobs (D-dG) [3]: 0.08; Rel kobs (D-dC) [4]: 2; Rel kobs (AraC) [5]: 0.25; Rel kobs (D-dA) [6]: 0.18; Rel kobs (D-dT) [7]: 50; Rel kobs (L-dT) [8]: 10; Rel kobs (Gem) [9]: 0.53; rate of phosphorylation, L-dU [10]: 0.4 s⁻¹
R104K/D133A: human dCK mutant, lysine at position 104, D133A	–	<0.005 s⁻¹	–	<0.005 s⁻¹	<0.005 s⁻¹	<0.005 s⁻¹	–	<0.005 s⁻¹	–	<0.005 s⁻¹	<0.005 s⁻¹	–	–
R104L/D133A: modified human dCK, leucine at position 104, alanine at position 133, SEQ ID NO:10	0.3 s⁻¹	0.30 ± 0.01 s⁻¹	0.27 s⁻¹	0.27 ± 0.09 s⁻¹	0.64 ± 0.06 s⁻¹	3.45 ± 0.16 s⁻¹	2.86 s⁻¹	2.86 ± 0.09 s⁻¹	1.07 s⁻¹	1.07 ± 0.09 s⁻¹	2.04 ± 0.03 s⁻¹	2.04 s⁻¹	Rel kobs (D-dG) [3]: 0.32; Rel kobs (D-dC) [4]: 9; Rel kobs (AraC) [5]: 0.35; Rel kobs (D-dA) [6]: 2.9; Km [7]: < 25 µM; Rel kobs (D-dT) [7]: 358; Rel kobs (L-dT) [8]: 63; Rel kobs (Gem) [9]: 5.20; rate of phosphorylation, L-dU [10]: 2.56 s⁻¹
R104Q/D133A: modified human dCK, glutamine at position 104, alanine at position 133, SEQ ID NO:8	0.06 s⁻¹	0.06 ± 0.01 s⁻¹	0.08 s⁻¹	0.08 ± 0.01 s⁻¹	0.18 ± 0.01 s⁻¹	0.18 ± 0.04 s⁻¹	0.1 s⁻¹	0.10 ± 0.06 s⁻¹	0.15 s⁻¹	0.15 ± 0.02 s⁻¹	0.17 ± 0.04 s⁻¹	0.17 s⁻¹	Rel kobs (D-dG) [3]: 0.06; Rel kobs (D-dC) [4]: 2.7; Rel kobs (AraC) [5]: 0.60; Rel kobs (D-dA) [6]: 0.15; Rel kobs (D-dT) [7]: 12.5; Rel kobs (L-dT) [8]: 9; Rel kobs (Gem) [9]: 0.43; rate of phosphorylation, L-dU [10]: 0.14 s⁻¹
R104Q: human dCK variant of Table 8 with Q at position 104 and unchanged D133	0.06 s⁻¹	–	0.07 s⁻¹	–	–	–	0.05 s⁻¹	–	0.06 s⁻¹	–	–	0.06 s⁻¹	rate of phosphorylation, L-dU [10]: 0.06 s⁻¹
R104V/D133A: human dCK mutant, valine at position 104, D133A	0.03 s⁻¹	<0.005 s⁻¹	0.03 s⁻¹	<0.005 s⁻¹	<0.005 s⁻¹	<0.005 s⁻¹	0.04 s⁻¹	<0.005 s⁻¹	0.05 s⁻¹	<0.005 s⁻¹	<0.005 s⁻¹	–	–
WT: wild type human deoxycytidine kinase, SEQ ID NO:1 [reference compound]	0.94 s⁻¹	0.94 ± 0.18 s⁻¹	0.03 s⁻¹	0.03 ± 0.01^b sec^−1	0.30 ± 0.04^b sec^−1	1.19 ± 0.01 s⁻¹	–	0.008 ± 0.001^b sec^−1	–	0.017 ± 0.023 s⁻¹	0.39 ± 0.01 s⁻¹	0.39 s⁻¹	Rel kobs (D-dG) [3]: 1; Rel kobs (D-dC) [4]: 1; Rel kobs (AraC) [5]: 1.00; Rel kobs (D-dA) [6]: 1; Km [11]: > 3000 µM; Rel kobs (D-dT) [7]: 1; Rel kobs (L-dT) [8]: 1; Rel kobs (Gem) [9]: 1.00
dCK S74E: dCK S74E mutant mimicking the Ser74 phosphorylated state [reference compound]	–	–	–	–	–	–	–	–	–	–	–	–	increase of the rate of phosphorylation of dC [12]: 11 fold

From US8349318B2, “Use of specifically engineered enzymes to enhance the efficacy of prodrugs” (The Board of Trustees of the University of Illinois, priority 2008, dated 2013)
